Measurements published in patent US20250320281A1.
Residue numbers refer to the chain shown, from its start.

B1: 1503_H05 (PG16) (TCN-119) (antibody, V domains shown)
VH: QEKLVESGGGVVQPGGSLRLSCLASGFTFHKYGMHWVRQAPGKGLEWVALISDDGMRKYHSDSMWGRVTISRDNSKNTLYLQFSSLKVEDTAMFFCAREAGGPIWHDDVKYYDFNDGYYNYHYMDVWGKGTIVTVSS
VL: QSALTQPASVSGSPGQTITISCNGTRSDVGGFDSVSWYQQSPGKAPKVMVFDVSHRPSGISNRFSGSKSGNTASLTISGLHIEDEGDYFCSSLTDRSHRIFGGGTKVTVLG
B2: 1489_I13 (PG16) (TCN-120) (antibody, V domains shown)
VH: B1 VH with K3Q, V5L, D62N, I132T
VL: B1 VL with R26S
B3: 1469_M23 (PG16) (TCN-118) (antibody, V domains shown)
VH: B1 VH with I132T
VL: B1 VL with K44R, V107L
B4: 1456_A12 (PG16) (TCN-117) (antibody, V domains shown)
VH: B1 VH with Q1H, K3Q, S7A, K87R, I132K
VL: B1 VL with R26S, S27R, I60M, V107L

These binders were tested against HIV-1 Env of isolate Du172 (clade C pseudovirus) (HIV-1) (assay: cell-based or functional assay).
B1 showed an IC50 (neutralization, TZM-bl pseudovirus assay) of under 0.01 µg/mL. Binder B2 has an IC50 (neutralization, TZM-bl pseudovirus assay) of under 0.01 µg/mL. With B3 the IC50 (neutralization, TZM-bl pseudovirus assay) was under 0.01 µg/mL. Binder B4 has an IC50 (neutralization, TZM-bl pseudovirus assay) of under 0.01 µg/mL.

These binders were tested against MuLV envelope protein (control pseudovirus) (MuLV) (assay: cell-based or functional assay).
B1 gave an IC50 (neutralization, TZM-bl pseudovirus assay) of over 25 µg/mL. B2 showed an IC50 (neutralization, TZM-bl pseudovirus assay) of over 25 µg/mL. Binder B3 has an IC50 (neutralization, TZM-bl pseudovirus assay) of over 25 µg/mL. Work on B4 yielded an IC50 (neutralization, TZM-bl pseudovirus assay) of over 25 µg/mL.

Each binder was assayed against HIV-1 Env of isolate REJ04541 (clade B pseudovirus) (HIV-1) (assay: cell-based or functional assay).
For B1, the IC50 (neutralization, TZM-bl pseudovirus assay) was 0.22 µg/mL. B2 gave an IC50 (neutralization, TZM-bl pseudovirus assay) of 0.34 µg/mL. Work on B3 yielded an IC50 (neutralization, TZM-bl pseudovirus assay) of 0.39 µg/mL. In the case of B4, the IC50 (neutralization, TZM-bl pseudovirus assay) is reported as under 0.01 µg/mL.

These binders were tested against HIV-1 Env of isolate ZM249 (clade C pseudovirus) (HIV-1) (assay: cell-based or functional assay).
B1 gave an IC50 (neutralization, TZM-bl pseudovirus assay) of under 0.01 µg/mL. B2 was tested, and the IC50 (neutralization, TZM-bl pseudovirus assay) was under 0.01 µg/mL. With B3 the IC50 (neutralization, TZM-bl pseudovirus assay) was under 0.01 µg/mL. B4 showed an IC50 (neutralization, TZM-bl pseudovirus assay) of under 0.01 µg/mL.

Each binder was assayed against HIV-1 Env of isolate ZM233 (clade C pseudovirus) (HIV-1) (assay: cell-based or functional assay).
B1 gave an IC50 (neutralization, TZM-bl pseudovirus assay) of under 0.01 µg/mL. For B2, the IC50 (neutralization, TZM-bl pseudovirus assay) was under 0.01 µg/mL. Binder B3 has an IC50 (neutralization, TZM-bl pseudovirus assay) of under 0.01 µg/mL. In the case of B4, the IC50 (neutralization, TZM-bl pseudovirus assay) is reported as under 0.01 µg/mL.

These binders were tested against HIV-1 Env of isolate TR0.11 (clade B pseudovirus) (HIV-1) (assay: cell-based or functional assay).
Work on B1 yielded an IC50 (neutralization, TZM-bl pseudovirus assay) of 4.3 µg/mL. Binder B2 has an IC50 (neutralization, TZM-bl pseudovirus assay) of 10.9 µg/mL. Work on B3 yielded an IC50 (neutralization, TZM-bl pseudovirus assay) of 7.52 µg/mL. B4 gave an IC50 (neutralization, TZM-bl pseudovirus assay) of 3.05 µg/mL.

Each binder was assayed against HIV-1 Env of isolate CAP45 (clade C pseudovirus) (HIV-1) (assay: cell-based or functional assay).
B1 was tested, and the IC50 (neutralization, TZM-bl pseudovirus assay) was under 0.01 µg/mL. In the case of B2, the IC50 (neutralization, TZM-bl pseudovirus assay) is reported as under 0.01 µg/mL. Work on B3 yielded an IC50 (neutralization, TZM-bl pseudovirus assay) of under 0.01 µg/mL. Work on B4 yielded an IC50 (neutralization, TZM-bl pseudovirus assay) of under 0.01 µg/mL.

These binders were tested against HIV-1 Env of isolate PVO.4 (clade B pseudovirus) (HIV-1) (assay: cell-based or functional assay).
Binder B1 has an IC50 (neutralization, TZM-bl pseudovirus assay) of 11 µg/mL. B2 gave an IC50 (neutralization, TZM-bl pseudovirus assay) of 20.6 µg/mL. Binder B3 has an IC50 (neutralization, TZM-bl pseudovirus assay) of 21.2 µg/mL. In the case of B4, the IC50 (neutralization, TZM-bl pseudovirus assay) is reported as 10.4 µg/mL.

Each binder was assayed against HIV-1 92RW020 Env (HIV-1 92RW020) (assay: cell-based or functional assay).
In the case of B1, the IC50 (ug/ml), pseudovirus neutralization, TZM-bl assay is reported as 0.02 µg/mL. In the case of B2, the IC50 (ug/ml), pseudovirus neutralization, TZM-bl assay is reported as 0.03 µg/mL. Work on B3 yielded an IC50 (ug/ml), pseudovirus neutralization, TZM-bl assay of 0.05 µg/mL. For B4, the IC50 (ug/ml), pseudovirus neutralization, TZM-bl assay was 0.05 µg/mL.

Each binder was assayed against HIV-1 Env of isolate CAAN (clade B pseudovirus) (HIV-1) (assay: cell-based or functional assay).
B1 showed an IC50 (neutralization, TZM-bl pseudovirus assay) of 13.5 µg/mL. B2 was tested, and the IC50 (neutralization, TZM-bl pseudovirus assay) was 24.9 µg/mL. For B3, the IC50 (neutralization, TZM-bl pseudovirus assay) was 17.7 µg/mL. For B4, the IC50 (neutralization, TZM-bl pseudovirus assay) was 10.6 µg/mL.

What follows are binders tested against HIV-1 Env of isolate THRO.18 (clade B pseudovirus) (HIV-1) (assay: cell-based or functional assay).
Binder B1 has an IC50 (neutralization, TZM-bl pseudovirus assay) of 4.12 µg/mL. B2 was tested, and the IC50 (neutralization, TZM-bl pseudovirus assay) was 7.41 µg/mL. B3 gave an IC50 (neutralization, TZM-bl pseudovirus assay) of 7.01 µg/mL. B4 gave an IC50 (neutralization, TZM-bl pseudovirus assay) of 2.08 µg/mL.

Each binder was assayed against HIV-1 Env of isolate DU422 (clade C pseudovirus) (HIV-1) (assay: cell-based or functional assay).
With B1 the IC50 (neutralization, TZM-bl pseudovirus assay) was 0.71 µg/mL. B2 gave an IC50 (neutralization, TZM-bl pseudovirus assay) of 1.87 µg/mL. In the case of B3, the IC50 (neutralization, TZM-bl pseudovirus assay) is reported as 0.97 µg/mL. With B4 the IC50 (neutralization, TZM-bl pseudovirus assay) was 0.36 µg/mL.

Each binder was assayed against HIV-1 Env of isolate AC10 (clade B pseudovirus) (HIV-1) (assay: cell-based or functional assay).
B1 showed an IC50 (neutralization, TZM-bl pseudovirus assay) of under 0.01 µg/mL. B2 was tested, and the IC50 (neutralization, TZM-bl pseudovirus assay) was under 0.01 µg/mL. In the case of B3, the IC50 (neutralization, TZM-bl pseudovirus assay) is reported as under 0.01 µg/mL. In the case of B4, the IC50 (neutralization, TZM-bl pseudovirus assay) is reported as under 0.01 µg/mL.

What follows are binders tested against HIV-1 JR-FL Env E168K (HIV-1 JR-FL) (assay: cell-based or functional assay).
With B1 the IC50 (ug/ml), pseudovirus neutralization, TZM-bl assay was 0.002 µg/mL. B2 was tested, and the IC50 (ug/ml), pseudovirus neutralization, TZM-bl assay was 0.005 µg/mL. B3 gave an IC50 (ug/ml), pseudovirus neutralization, TZM-bl assay of 0.005 µg/mL. B4 gave an IC50 (ug/ml), pseudovirus neutralization, TZM-bl assay of 0.003 µg/mL.

What follows are binders tested against HIV-1 Env of isolate DU156 (clade C pseudovirus) (HIV-1) (assay: cell-based or functional assay).
Binder B1 has an IC50 (neutralization, TZM-bl pseudovirus assay) of under 0.01 µg/mL. Binder B2 has an IC50 (neutralization, TZM-bl pseudovirus assay) of under 0.01 µg/mL. Binder B3 has an IC50 (neutralization, TZM-bl pseudovirus assay) of under 0.01 µg/mL. Work on B4 yielded an IC50 (neutralization, TZM-bl pseudovirus assay) of under 0.01 µg/mL.

What follows are binders tested against HIV-1 Env of isolate ZM214 (clade C pseudovirus) (HIV-1) (assay: cell-based or functional assay).
B1 was tested, and the IC50 (neutralization, TZM-bl pseudovirus assay) was over 25 µg/mL. With B2 the IC50 (neutralization, TZM-bl pseudovirus assay) was over 25 µg/mL. Work on B3 yielded an IC50 (neutralization, TZM-bl pseudovirus assay) of over 25 µg/mL. With B4 the IC50 (neutralization, TZM-bl pseudovirus assay) was over 25 µg/mL.

The binders below were run against HIV-1 ADA Env (HIV-1 ADA) (assay: cell-based or functional assay).
B1 showed an IC50 (ug/ml), pseudovirus neutralization, TZM-bl assay of 0.003 µg/mL. Binder B2 has an IC50 (ug/ml), pseudovirus neutralization, TZM-bl assay of 0.008 µg/mL. Work on B3 yielded an IC50 (ug/ml), pseudovirus neutralization, TZM-bl assay of 0.005 µg/mL. B4 showed an IC50 (ug/ml), pseudovirus neutralization, TZM-bl assay of 0.005 µg/mL.
